What was measured:
[1] = target: Full-length human CXCR3 receptor protein with C-terminal 6xHis and HPC4 tag (human) (UniProt P49682); experiment: SPR (Biacore whole receptor assay), receptor on NTA chip, 1:1 fit
[2] = target: human CXCR3 (full length, splice variant A) expressed on transfected cells (human) (UniProt P49682)
[3] = target: human CXCR3 (full length, splice variant A) expressed on transfected cells (human) (UniProt P49682); remark: listed apart in the source
[4] = target: human CXCR3 (full length, splice variant A) expressed on transfected cells (human) (UniProt P49682); experiment: cell-based or functional assay

Substance | Kd [1] | koff [1] | kon [1] | IC50 (read off the curve), inhibition of CXCL10-induced calcium mobilization [all five panels] [2] | IC50, inhibition of CXCL11-induced calcium mobilization in hCXCR3 HEK cells (FLIPR); bar labelled '+ CTRL' (panels A to C of the same sheet print '1C6 (+ CTRL)') [3] | IC50 (M), calcium mobilization to CXCL10 in human CXCR3-Gqi4qi4 CHO cells [4] | IC50, inhibition of CXCL11-induced calcium mobilization in hCXCR3 HEK cells (FLIPR); isotype control [3]
human CXCL10 (from UniProt P02778 22-98) (ligand) | 9.76 nM | 0.00127 s⁻¹ | 136000 M⁻¹ s⁻¹ | – | – | – | –
Anti-hCXCR3 mAb clone 1C6 (Becton, Dickinson catalog #557183) (antibody) | 3.51 nM | 0.000142 s⁻¹ | 41100 M⁻¹ s⁻¹ | 3 µg/mL | 0.12 µg/mL | 3.14e-06 M | –
mouse CXCL11 (from UniProt Q9JHH5 22-100) (ligand) | 1.17 nM | 0.00426 s⁻¹ | 3.69e+06 M⁻¹ s⁻¹ | – | – | – | –
human CXCL11 (from UniProt O14625 22-94) (ligand) | 1.72 nM | 0.00441 s⁻¹ | 2.58e+06 M⁻¹ s⁻¹ | – | – | – | –
CTRL IgG1 (antibody) | – | – | – | – | – | – | 27.6 µg/mL

Reference: patent publication US20140377806A1
